T1: human β-klotho with a C-terminal FLAG tag, stably expressed in a clonal HEK-293 cell line (human, UniProt Q86Z14 1-1044)
T1 sequence: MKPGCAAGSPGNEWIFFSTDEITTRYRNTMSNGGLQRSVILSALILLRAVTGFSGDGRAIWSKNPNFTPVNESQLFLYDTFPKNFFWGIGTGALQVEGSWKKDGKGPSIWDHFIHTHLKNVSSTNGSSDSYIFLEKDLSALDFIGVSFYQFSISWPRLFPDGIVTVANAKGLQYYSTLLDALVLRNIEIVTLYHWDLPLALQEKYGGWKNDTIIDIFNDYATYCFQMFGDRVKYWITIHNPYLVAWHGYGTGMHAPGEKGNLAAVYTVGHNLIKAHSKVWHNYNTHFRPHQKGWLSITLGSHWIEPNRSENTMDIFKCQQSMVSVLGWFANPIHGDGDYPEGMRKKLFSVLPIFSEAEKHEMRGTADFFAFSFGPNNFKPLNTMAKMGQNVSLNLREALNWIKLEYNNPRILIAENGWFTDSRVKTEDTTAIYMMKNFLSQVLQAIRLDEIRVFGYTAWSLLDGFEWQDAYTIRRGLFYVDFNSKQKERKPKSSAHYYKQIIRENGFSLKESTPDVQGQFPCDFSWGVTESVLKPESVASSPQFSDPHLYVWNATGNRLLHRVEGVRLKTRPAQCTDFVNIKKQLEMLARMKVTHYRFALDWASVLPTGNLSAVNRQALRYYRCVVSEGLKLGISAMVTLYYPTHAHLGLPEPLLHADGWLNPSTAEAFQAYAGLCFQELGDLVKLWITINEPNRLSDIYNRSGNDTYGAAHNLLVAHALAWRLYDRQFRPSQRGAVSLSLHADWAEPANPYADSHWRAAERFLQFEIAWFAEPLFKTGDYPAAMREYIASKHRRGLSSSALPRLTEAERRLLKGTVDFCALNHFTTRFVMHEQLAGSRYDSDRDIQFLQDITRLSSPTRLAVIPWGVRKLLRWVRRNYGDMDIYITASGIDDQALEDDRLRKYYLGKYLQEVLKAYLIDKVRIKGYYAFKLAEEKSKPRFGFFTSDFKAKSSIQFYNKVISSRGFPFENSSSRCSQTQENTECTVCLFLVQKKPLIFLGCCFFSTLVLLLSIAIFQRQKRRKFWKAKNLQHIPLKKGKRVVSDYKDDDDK


Target: T1, human β-klotho with a C-terminal FLAG …
Assay: cell-based or functional assay

pERK EC50	Binder
5.1 nM	Compound 19 (ligand) MHPIPDSSPLLQFGGQVRQRYLYTDDAQQTEAHLEIREDGTVGGAADQSPESLLQLKALKPGVIQILGVKTSRFLCQRPDGALYGSLHFDPEACSFRELLLEDGYNVYQSEAHGLPLHLGSGPHRDPAPRGPARFLPLPGLPPAPPEPPGILAPQPPDVGSSDPLSMVEPSQGRSPSYAS
30 nM	Compound 23 (ligand) MHPIPDSSPLLQFGGQVRQRYLYTDDAQQTEAHLEIREDGTVGGAADQSPESLLQLKALKPGVIQILGVKTSRFLCQRPDGALYGSLHFDPEACSFRELLLEDGYNVYQSEAHGLPLHLGGGPARFLPLPGLPPAPPEPPGILAPQPPDVGSSDPLSMVEPSQGRSPSYAS
3.9 nM	Compound 20 (ligand) MHPIPDSSPLLQFGGQVRQRYLYTDDAQQTEAHLEIREDGTVGGAADQSPESLLQLKALKPGVIQILGVKTSRFLCQRPDGALYGSLHFDPEACSFRELLLEDGYNVYQSEAHGLPLHLGGHRDPAPRGPARFLPLPGLPPAPPEPPGILAPQPPDVGSSDPLSMVEPSQGRSPSYAS
4.1 nM	Compound 22 (ligand) MHPIPDSSPLLQFGGQVRQRYLYTDDAQQTEAHLEIREDGTVGGAADQSPESLLQLKALKPGVIQILGVKTSRFLCQRPDGALYGSLHFDPEACSFRELLLEDGYNVYQSEAHGLPLHLSGGPAPRGPARFLPLPGLPPAPPEPPGILAPQPPDVGSSDPLSMVEPSQGRSPSYAS
21.9 nM	Compound 10 (ligand) MHPIPDSSPLLQFGGQVRQRYLYTDDAQQTEAHLEIREDGTVGGAADQSPESLLQLKALKPGVIQILGVKTSRFLCQRPDGALYGSLHFDPEACSFRELLLEDGYNVYQSEAHGLPLHLGSGGPARFLPLPGLPPAPPEPPGILAPQPPDVGSSDPLSMVEPSQGRSPSYAS

The next lines start with the binder.

Binder	pERK EC50
Compound 3 (ligand) MHPIPDSSPLLQFGGQVRQRYLYTDDAQQTEAHLEIREDGTVGGAADQSPESLLQLKALKPGVIQILGVKTSRFLCQRPDGALYGSLHFDPEACSFRELLLEDGYNVYQSEAHGLPLHLPGNKSPHRDPAPRGPARFLPLPGLPPAPPEPPGILAPQPPDVGSSDPLSMVEPSQGRSPSYAS	28 nM
Compound 7 (ligand) MHPIPDSSPLLQFGGQVRQRYLYTDDAQQTEAHLEIREDGTVGGAADQSPESLLQLKALKPGVIQILGVKTSRFLCQRPDGALYGSLHFDPEACSFRELLLEDGYNVYQSEAHGLPLHLPGDKSPHRDPAPRGPARFLPLPGLPPAPPEPPGILAPQPPDVGSSDPLSMVEPSQGRSPSYAS	28.4 nM
Compound 5 (ligand) MHPIPDSSPLLQFGGQVRQRYLYTDDAQQTEAHLEIREDGTVGGAADQSPESLLQLKALKPGVIQILGVKTSRFLCQRPDGALYGSLHFDPEACSFRELLLEDGYNVYQSEAHGLPLHLPGDKSRDPAPRGPARFLPLPGLPPAPPEPPGILAPQPPDVGSSDPLSMVEPSQGRSPSYAS	69.2 nM
Compound 6 (ligand) MHPIPDSSPLLQFGGQVRQRYLYTDDAQQTEAHLEIREDGTVGGAADQSPESLLQLKALKPGVIQILGVKTSRFLCQRPDGALYGSLHFDPEACSFRELLLEDGYNVYQSEAHGLPLHLPGHKSRDPAPRGPARFLPLPGLPPAPPEPPGILAPQPPDVGSSDPLSMVEPSQGRSPSYAS	39.1 nM
Compound 2 (ligand) MHPIPDSSPLLQFGGQVRQRYLYTDDAQQTEAHLEIREDGTVGGAADQSPESLLQLKALKPGVIQILGVKTSRFLCQRPDGALYGSLHFDPEACSFRELLLEDGYNVYQSEAHGLPLHLGSGRGPARFLPLPGLPPAPPEPPGILAPQPPDVGSSDPLSMVEPSQGRSPSYAS	4.6 nM
